Experimental data: PMC6609509 (Molecular psychiatry, 2019)

Biological target: full-length recombinant ABI1 (UniProt Q8IZP0-5 1-476)
Test: SPR

fold increase in KD against wild-type fragment 4: ~4 fold
B1: Shank3 fragment 4 (aa 668–858), S685I (domain or fragment, mouse, UniProt Q4ACU6 668-858, looked up)
chain: EEDGARRRAPPPPKRAPITTLTLRSKSMTAELEELASIRRRKGEKLDEILAVAAEPTLRPDIADADSRAATVKQRPTSRRITPAEISSLFERQGLPGPEKLPGSLRKGIPRTKSVGEDEKLASLLEGRFPRSTSMQDTVREGRGIPPPPQTAPPPPPAPYYFDSGPPPTFSPPPPPGRAYDTVRSSFKPGL
